From the supplement of paper PMC12042874
± gives the uncertainty stated by the source.

Test: amyloid nucleation score (Sup35N fusion, yeast selection) (log enrichment); library NNK2; higher = more nucleation; inactive = no reads after selection
Outline: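 For the nucleation score, DiMSum gave the log enrichment of output over input reads, centred on the mode score of non-aggregating sequences. Psi-negative yeast expressing Sup35N fused to peptides of 20 random codons were induced with 100 μM copper sulfate for 24 hours and grown 7 days at 30°C on medium lacking adenine and uracil. Input and output plasmid inserts were Illumina-sequenced, and sequences with under 100 input reads were excluded.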

Row | Substance | amyloid nucleation score
1 | RNSIYMVTYIMVLDRIA | 6.127 ± 0.046
2 | STRLEVLKLERKIMSSKLFL | 0.699 ± 0.18
3 | IEGREGCARDNKGYYTALLL | inactive
4 | KISSLLGWLWRITIRRLGRA | 0.617 ± 0.65
5 | RFLCFLPNNYLFSAGFSLVL | inactive
6 | VYKYI | -0.578 ± 1.1
7 | GSSRLCRQYAVNFFDCHMYD | 4.78 ± 0.056
8 | LYVCPSASWESCPGGIKRMG | inactive
9 | FQIMKAYDTLPFLVYPVTGD | -0.117 ± 0.79
10 | FAYSLHRLLWIRCMYSNGR | 1.45 ± 0.17
11 | LYRTYLYTDYFTKMHV | -1.16 ± 0.76
12 | TYIRDRHIVYWGHTGSFIYM | 1.63 ± 0.18
13 | MWGIRSYLVKVL | -0.291 ± 0.76
14 | PLNCLPGNCSAQPRFGAASG | 0.505 ± 0.39
15 | CYHVTLMR | 0.718 ± 0.26
16 | SLFCVYYNDSSLLSYSVWQI | 5.75 ± 0.06
17 | FNNVILSRV | -1.5 ± 0.61
18 | QHVGDSWMSSVNLGVLRVRL | 0.055 ± 0.35
19 | IVNINYCFTFKVPNHNNSMK | 7.923 ± 0.04
20 | SSMLANSMWRSFSVSYGTML | 0.929 ± 0.36
21 | DRLGTYSS | 0.409 ± 0.54
22 | YWPLVIFLAWPMKYFVLEVM | -0.417 ± 0.43
23 | NIRWRGNPFPCIVRNSVGEI | 0.097 ± 0.31
24 | FDKASLKFCVMLVVRSV | 0.236 ± 1.1

Row | Substance | amyloid nucleation score
25 | FITEDLVRAFANYVND | inactive
26 | ELLSRETIKDHWMTIIKYFL | -0.143 ± 0.74
27 | NDKTYLPGRHSYGSCYVIVW | 0.561 ± 0.64
28 | KNRRFT | -0.493 ± 1.1
29 | NLSFLEPLYWNEVSYFVRCC | 6.369 ± 0.023
30 | TAKHDYFLSEESRRLYSSKY | 2.31 ± 0.063
31 | LFLQVGTAVGIRYINGAYLV | -0.959 ± 0.38
32 | NCSSMFCIICKKCCVDAFIL | 3.73 ± 0.048
33 | SPSDSAL | -0.501 ± 0.64
34 | CNNCYALYHDGV | -0.396 ± 0.39
35 | ANGGYMVYSFAEEYYYDWCT | -0.063 ± 0.29
36 | YLLGRMKWLNTVRWERRDEF | 3.51 ± 0.083
37 | VMRHERTNFIYSKWWGFVEE | -0.011 ± 0.65
38 | RDLDY | -1.27 ± 0.75
39 | KFCSRVFSQCMSYLSCLLDF | 0.17 ± 0.74
40 | VSHFPGSPLTNKRSMLPAQM | 2.01 ± 0.14
41 | TSGLMMSVCKFDLWQNVND | 3.81 ± 0.09
42 | HSMQSVPKWKL | 1.86 ± 0.25
43 | VMGNFRFYRSMLAFDYDEGV | 1.14 ± 0.18
44 | RMFDYDSGGNNRICYDYYAN | -1.69 ± 0.61
45 | TDDMCYSEMYIRCVRLFEIV | 2.34 ± 0.11
46 | SGCGCGLGMPTCRRSVRG | 0.631 ± 0.19
47 | YSVSSMVKPMIICCNSVNC | 8.344 ± 0.051
48 | FRTQCHRAMDRASCRVLVRP | inactive

Row | Substance | amyloid nucleation score
49 | FTLDNMSLQTRTLMRYE | -0.863 ± 0.49
50 | RYISPSQSAQVSGHLRNVQL | 0.689 ± 0.62
51 | GEQVWCVGCPYVRWNSLHAG | 8.756 ± 0.037
52 | SVRHCLSLSSM | inactive
53 | GTTCDIEDVPCMLVVDTLLV | 1.42 ± 0.16
54 | GFSSHSSFNHTI | 1.37 ± 0.32
55 | LKRGYSFMRCLGVWRFQEPD | -0.158 ± 0.25
56 | ITQRHSVNLNMMSLDLYTSS | 0.295 ± 1
57 | LVRDHRNRVGFCQMSQ | 0.248 ± 0.44
58 | LRSFM | -0.591 ± 0.5
59 | DRQCK | 0.445 ± 0.32
60 | NSMPATIYFMRSPDIGFSV | 2.81 ± 0.16
61 | TWHSIWREYSGTFTHTYWTD | 0.555 ± 0.62
62 | RTSGAVDCTHRFFSEWFKGV | inactive
63 | VPPPVGVIYGIQ | 0.637 ± 0.32
64 | NLVTYDLE | 3.79 ± 0.052
65 | ARGGKLLSCFCSGWRLDHVR | 9.958 ± 0.051
66 | RVADVCTQVMRGL | 1.9 ± 0.33
67 | SVEFVLMRLGQLT | 4.18 ± 0.058
68 | TINMNIYFIVRVDPSFDNVV | 6.88 ± 0.064
69 | CVNITYI | 4.625 ± 0.031
70 | VMAILCTNARQLEDSLRQVE | 0.452 ± 0.43
